Patent US20080026996A1, “Selective Vpac2 Receptor Reptide Agonists” (ELI LILLY AND COMPANY, priority 2004, published 2008)
Where no end group is shown, it is not given here. [ ]: non-standard residue; d: D form. The star is where a group is joined. Hexanoyl = CCCCCC(=O)*; Aib = CC(C)(N)C(=O)O

T1: human VPAC2 receptor (human, UniProt P41587 24-438)
T1 sequence (looked up): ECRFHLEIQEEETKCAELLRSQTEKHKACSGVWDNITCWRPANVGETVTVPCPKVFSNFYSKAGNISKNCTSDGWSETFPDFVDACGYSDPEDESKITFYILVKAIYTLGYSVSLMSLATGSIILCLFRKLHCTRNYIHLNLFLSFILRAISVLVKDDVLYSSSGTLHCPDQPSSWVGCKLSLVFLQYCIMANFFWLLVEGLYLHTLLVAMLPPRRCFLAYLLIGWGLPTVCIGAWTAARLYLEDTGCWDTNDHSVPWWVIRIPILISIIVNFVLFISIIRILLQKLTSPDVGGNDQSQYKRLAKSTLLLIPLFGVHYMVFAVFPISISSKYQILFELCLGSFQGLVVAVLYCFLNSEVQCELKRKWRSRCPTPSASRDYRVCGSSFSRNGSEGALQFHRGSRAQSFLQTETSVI


target: T1, human VPAC2 receptor; assay: cell-based or functional assay

**Q.** Which “EC50 cAMP, Alpha Screen” value does the source give for Hexanoyl-HSDAVFTDNYTRLRKQVAAKKYLQS[Aib]KNKRYGGPSSGAPPPS (ends and bridges not checked) [P188] here?
**A.** 0.32 nM

**Q.** Which “EC50 cAMP, Alpha Screen” value does the source give for Hexanoyl-HSDAVFTDNYTRLRK(Ac)QVAAK(Ac)KYLQSIKNKRYGGPSSGAPPPS [P193] here?
**A.** 0.18 nM

**Q.** How did the “EC50 cAMP, Alpha Screen” value turn out when Hexanoyl-HSDAVFTDNYTRLRKQVAAKKYLQYIKNKRYGGPSSGAPPPS [P127] was run?
**A.** 0.22 nM

**Q.** For Hexanoyl-HSDAVFTDNYTRLRKQVAAWKYLQSIKNKRYGGPSSGAPPPS [P153], which “EC50 cAMP, Alpha Screen” value is on record?
**A.** 0.11 nM

**Q.** Which “EC50 cAMP, Alpha Screen” value does the source give for Hexanoyl-HSDAVFTENYTRLRKQVAAKKYLQSIKNKRYGGPSSGAPPPS [P159] here?
**A.** 0.17 nM

**Q.** Which “EC50 cAMP, Alpha Screen” value does the source give for Hexanoyl-HSDAVFTDNYTRLRKQVAATKYLQSIKNKRYGGPSSGAPPPS [P152] here?
**A.** 0.17 nM

**Q.** Which “EC50 cAMP, Alpha Screen” value does the source give for Hexanoyl-HSDAVFTDNYTRLRKQVAAVKYLQSIKNKRYGGPSSGAPPPS [P146] here?
**A.** 0.17 nM

**Q.** With Hexanoyl-HSDAVFTDNYTRLRAQVAAKKYLQSIKNKRYGGPSSGAPPPS [P139] as the binder, how does the “EC50 cAMP, Alpha Screen” value read?
**A.** 0.2 nM

**Q.** How did the “EC50 cAMP, Alpha Screen” value turn out when Hexanoyl-HSDAVFTDNYTRLRKQVAAKKYLQSVKNKRYGGPSSGAPPPS [P109] was run?
**A.** 0.22 nM

**Q.** How did the “EC50 cAMP, Alpha Screen” value turn out when Hexanoyl-HSDAVFTDNYTRLRKQVAALKYLQSIKNKRYGGPSSGAPPPS [P151] was run?
**A.** 0.07 nM

**Q.** Hexanoyl-HSDAVFTDNYTRLRKQVAAIKYLQSIKNKRYGGPSSGAPPPS [P149] was tested. Which “EC50 cAMP, Alpha Screen” value did it give?
**A.** 0.41 nM

**Q.** How did the “EC50 cAMP, Alpha Screen” value turn out when Hexanoyl-HSDAVFTDNYTRLRKQVAAKKYLQNIKNKRYGGPSSGAPPPS [P125] was run?
**A.** 0.14 nM

**Q.** How did the “EC50 cAMP, Alpha Screen” value turn out when Hexanoyl-HSDAVFTANYTRLRKQVAAKKYLQSIKNKRYGGPSSGAPPPS [P158] was run?
**A.** 0.11 nM

**Q.** How did the “EC50 cAMP, Alpha Screen” value turn out when Hexanoyl-HSDAVFTDNYTRLRKQVAAFKYLQSIKNKRYGGPSSGAPPPS [P148] was run?
**A.** 0.1 nM

**Q.** HSDAVFTDNYTRAKAKVAAKKYLQSIKNKRYGGPSSGAPPPS [P94] was tested. Which “EC50 cAMP, Alpha Screen” value did it give?
**A.** 696 nM

**Q.** And the “EC50 cAMP, DiscoveRx” value?
**A.** > 1000 nM

**Q.** For Hexanoyl-HSDAVFTDNYTRLRKQVAAKKYLQSYKNKRYGGPSSGAPPPS [P111], which “EC50 cAMP, Alpha Screen” value is on record?
**A.** 0.34 nM

**Q.** Hexanoyl-HSDAVFTDNYTRLRKQVAAKKLLQSIKNKRYGGPSSGAPPPS [P132] was tested. Which “EC50 cAMP, Alpha Screen” value did it give?
**A.** 3.1 nM

**Q.** For Hexanoyl-HSDAVFTDNYTRLRKQVAAKKYLQSFKNKRYGGPSSGAPPPS [P106], which “EC50 cAMP, Alpha Screen” value is on record?
**A.** 0.16 nM

**Q.** With Hexanoyl-HSDAVFTDNYTRLRKQVAAKKTLQSIKNKRYGGPSSGAPPPS [P131] as the binder, how does the “EC50 cAMP, Alpha Screen” value read?
**A.** 22.3 nM

**Q.** How did the “EC50 cAMP, Alpha Screen” value turn out when Hexanoyl-HSDAVFTDNYTRLRAQVAAQKYLQSIKNKRYGGPSSGAPPPS [P138] was run?
**A.** 0.45 nM

**Q.** Hexanoyl-HSDAVFTKNYTRLRKQVAAKKYLQSIKNKRYGGPSSGAPPPS [P160] was tested. Which “EC50 cAMP, Alpha Screen” value did it give?
**A.** 13.2 nM

**Q.** How did the “EC50 cAMP, Alpha Screen” value turn out when Hexanoyl-H[dA]DAVFTDNYTRLRKQVAAKKYLQSIKNKRYGGPSSGAPPPS [P101] was run?
**A.** 0.21 nM

**Q.** Which “EC50 cAMP, Alpha Screen” value does the source give for Hexanoyl-HSDAVFTDNYTRLRKQVAAKKYLQSTKNKRYGGPSSGAPPPS [P108] here?
**A.** 0.27 nM

**Q.** How did the “EC50 cAMP, Alpha Screen” value turn out when Hexanoyl-HSDAVFTDNYTRLRKQVAAKKYLQSLKNKRYGGPSSGAPPPS [P107] was run?
**A.** 0.12 nM

**Q.** Hexanoyl-HSDAVFTDNYTRLRKQVAAKKYLQSWKNKRYGGPSSGAPPPS [P110] was tested. Which “EC50 cAMP, Alpha Screen” value did it give?
**A.** 0.13 nM

**Q.** How did the “EC50 cAMP, Alpha Screen” value turn out when Hexanoyl-HSDAVFTDNYTRLRKQVAAKKYLQQIKNKRYGGPSSGAPPPS [P124] was run?
**A.** 0.09 nM

**Q.** Hexanoyl-HSDAVFTDNYTRLRKQVAAKKYLQLIKNKRYGGPSSGAPPPS [P114] was tested. Which “EC50 cAMP, Alpha Screen” value did it give?
**A.** 0.14 nM

**Q.** How did the “EC50 cAMP, Alpha Screen” value turn out when HSDAVFTDNYTRAAAKVAAKKYLQSIKNKRYGGPSSGAPPPS [P88] was run?
**A.** 1720 nM

**Q.** What about the “EC50 cAMP, DiscoveRx” value of the same binder?
**A.** > 1000 nM

**Q.** With Hexanoyl-HVDAVFTDNYTRLRKQVAAKKYLQSIKNKRYGGPSSGAPPPS [P99] as the binder, how does the “EC50 cAMP, Alpha Screen” value read?
**A.** 0.14 nM

**Q.** How did the “EC50 cAMP, Alpha Screen” value turn out when Hexanoyl-HSDAVFTDNYTKLKKQVAAKKYLQSIKNKKYGGPSSGAPPPS [P103] was run?
**A.** 0.12 nM

**Q.** Hexanoyl-HSDAVFTDNYTRLRKQVALKKYLQSIKNKRYGGPSSGAPPPS [P155] was tested. Which “EC50 cAMP, Alpha Screen” value did it give?
**A.** 0.24 nM

**Q.** How did the “EC50 cAMP, Alpha Screen” value turn out when Hexanoyl-HSDAVFTDNYTRLRKQVAAKKFLQSIKNKRYGGPSSGAPPPS [P130] was run?
**A.** 0.77 nM

**Q.** Hexanoyl-HSDAVFTDNYTRLRAQLAAQKYLQSIKNKRYGGPSSGAPPPS [P142] was tested. Which “EC50 cAMP, Alpha Screen” value did it give?
**A.** 0.15 nM

**Q.** Hexanoyl-HSDAVFTDNYTRLRRQVAARRYLQSIRNRRYGGPSSGAPPPS [P98] was tested. Which “EC50 cAMP, Alpha Screen” value did it give?
**A.** 0.15 nM

**Q.** Which “EC50 cAMP, Alpha Screen” value does the source give for Hexanoyl-HSDAVFTDNYTRLRKQVAAKKYLQIIKNKRYGGPSSGAPPPS [P113] here?
**A.** 0.26 nM

**Q.** For Hexanoyl-HSDAVFTDNYTRLRKQVAAKKWLQSIKNKRYGGPSSGAPPPS [P129], which “EC50 cAMP, Alpha Screen” value is on record?
**A.** 0.49 nM

**Q.** With HSDAVFTDNYTREKEKVAAKKYLQSIKNKRYGGPSSGAPPPS [P87] as the binder, how does the “EC50 cAMP, Alpha Screen” value read?
**A.** > 10000 nM

**Q.** How did the “EC50 cAMP, Alpha Screen” value turn out when Hexanoyl-HSDAVFTDNYTRLRKQVAAKKILQSIKNKRYGGPSSGAPPPS [P133] was run?
**A.** 2.7 nM

**Q.** How did the “EC50 cAMP, Alpha Screen” value turn out when Hexanoyl-HSDAVFTDNYTRLKAQVAAKKYLQSIKNKRYGGPSSGAPPPS [P141] was run?
**A.** 0.72 nM

**Q.** For Hexanoyl-HSDAVFTDNYTRLRKQVAAKKYLQWIKNKRYGGPSSGAPPPS [P117], which “EC50 cAMP, Alpha Screen” value is on record?
**A.** 0.2 nM

**Q.** With Hexanoyl-HSDAVFTDNYTRLRKQVAAKKVLQSIKNKRYGGPSSGAPPPS [P134] as the binder, how does the “EC50 cAMP, Alpha Screen” value read?
**A.** 5.47 nM

**Q.** Which “EC50 cAMP, Alpha Screen” value does the source give for HSDAVFTDNYTRLLAKVAAKKYLQSIKNKRYGGPSSGAPPPS [P89] here?
**A.** 1.23 nM

**Q.** And the “EC50 cAMP, DiscoveRx” value?
**A.** 0.7 nM

**Q.** For Hexanoyl-HSDAVFTDNYTRLRKQVAAYKYLQSIKNKRYGGPSSGAPPPS [P147], which “EC50 cAMP, Alpha Screen” value is on record?
**A.** 0.13 nM

**Q.** How did the “EC50 cAMP, Alpha Screen” value turn out when Hexanoyl-HSDAVFTDNYTRLRKQVAAKKYLQVIKNKRYGGPSSGAPPPS [P116] was run?
**A.** 0.12 nM

**Q.** With Hexanoyl-HSDAVFTDNYTRLRKQVAAKKYLQFIKNKRYGGPSSGAPPPS [P112] as the binder, how does the “EC50 cAMP, Alpha Screen” value read?
**A.** 0.16 nM

**Q.** For HSDGVFTDNYTRLRKQVAAKKYLQSIKNKRYGGPSSGAPPPS [P102], which “EC50 cAMP, Alpha Screen” value is on record?
**A.** 27.4 nM

**Q.** Which “EC50 cAMP, Alpha Screen” value does the source give for MHSDAVFTDQYTRLRKQVAAKKYLQSIKQKRYGGPSSGAPPPS (N-terminal methionine added (M-)) [P100] here?
**A.** 0.28 nM

**Q.** With IHSDAVFTDNYTRLRKQVAAKKYLQSIKNKRYGGPSSGAPPPS (N-terminal isoleucine added (I-)) [P105] as the binder, how does the “EC50 cAMP, Alpha Screen” value read?
**A.** 8.33 nM
